Test results published in IntAct's records for PubMed 10913138.

B1: Protein S100-B (Homo sapiens), P04271 (parent)
chain: MSELEKAMVALIDVFHQYSGREGDKHKLKKSELKELINNELSHFLEEIKEQEVVDKVMETLDNDGDGECDFQEFMAFVAMVTTACHEFFEHE
partner: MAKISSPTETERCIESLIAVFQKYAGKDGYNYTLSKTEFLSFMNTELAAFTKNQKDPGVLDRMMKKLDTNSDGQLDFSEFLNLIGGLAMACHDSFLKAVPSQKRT
B2: Protein S100-B (Homo sapiens), P04271 (parent)
chain: B1 chain

Variants of: B1
Settings: with S100A11, P31949

| effect of a mutation on the interaction | Variant |
| --- | --- |
| decreasing interaction | MSELEKAMVALIDVFHQYSGREGDKHKLKKSELKELINNELSHFLEEIKEQEVVDKVMETLDNDGDGECDFQEFMAFVAMVTTACHEFAEHE [F89A] |

Variants of: B2
Settings: with S100A6, P06703

| effect of a mutation on the interaction | Variant |
| --- | --- |
| decreasing interaction | MSELEKAMVALIDVFHQYSGREGDKHKLKKSELKELINNELSHFLEEIKEQEVVDKVMETLDNDGDGECDFQEFMAFVAMVTTACHEAFEHE [F88A] |

Variants of: B2
Settings: with S100A6, P06703
Remark: another data set of the same source

| effect of a mutation on the interaction | Variant |
| --- | --- |
| decreasing interaction | MSELEKAMVALIDVFHQYSGREGDKHKLKKSELKELINNELSHFLEEIKEQEVVDKVMETLDNDGDGECDFQEFMAFVAMVTTACHEFAEHE [F89A] |
